Values quoted from earlier work as cited in patent US20250302913A1, “LACRIPEP PROMOTES NEUROREGENERATION AND MAINTAINS EPITHELIAL PROGENITOR CELL IDENTITY” (The Regents of The University of California, priority 2022, published 2025).

How the values were obtained:
[1] = tested on: rabbit corneas; settings: after refractive surgery; cited from earlier work
[2] = tested on: human patients; settings: controlled clinical studies; cited from earlier work
[3] = biological target: T1, syndecan-1 (SDC1) (Homo sapiens, UniProt P18827); settings: cited from earlier work
T1 sequence (P18827 23-310): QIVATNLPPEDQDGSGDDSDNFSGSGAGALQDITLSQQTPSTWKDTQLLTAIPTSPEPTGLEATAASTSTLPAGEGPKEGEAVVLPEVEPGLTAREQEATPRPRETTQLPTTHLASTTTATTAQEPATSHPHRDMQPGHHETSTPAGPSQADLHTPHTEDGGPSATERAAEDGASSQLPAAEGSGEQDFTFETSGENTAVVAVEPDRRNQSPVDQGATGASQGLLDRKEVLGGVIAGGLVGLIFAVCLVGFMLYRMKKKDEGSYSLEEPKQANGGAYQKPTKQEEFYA

[4] = tested on: healthy rabbit model; settings: cited from earlier work
[5] = tested on: corneal epithelial cell; settings: in vitro; cited from earlier work

Molecule: cenegermin: recombinant nerve growth factor
- reinnervation of corneas [1]: stimulated the reinnervation of rabbit corneas
- corneal sensitivity or visual acuity versus vehicle (artificial tears) [2]: failed to show significant benefit over vehicle

B1: Lacritin: endogenous glycoprotein initially identified in tears (protein, listed as Homo sapiens)
chain: MKFTTLLFLAAVAGALVYAEDASSDSTGADPAQEAGTSKPNEEISGPAEPASPPETTTTAQETSAAAVQGTAKVTSSRQELNPLKSIVEKSILLTEQALAKAGKGMHGGVPGGKQFIENGSEFAQKLLKKFSLLKPWA
modifications: Description of sequence: Lacritin
notes: endogenous glycoprotein initially identified in tears
- binding and activation of syndecan-1 [3]: bind and activate
- basal tearing [4]: promote basal tearing
- corneal epithelial cell proliferation [5]: promote corneal epithelial cell proliferation
